According to patent publication US20250320281A1:

Columns and labels:
Experiment in all cases: cell-based or functional assay
[1] = biological target: HIV-1 92BR020 envelope glycoprotein (Env) on pseudovirus (HIV-1)
[2] = biological target: HIV-1 Env of pseudovirus MGRM-AE-004 (clade CRF01_AE) (HIV-1)
[3] = biological target: HIV-1 APV-6 envelope glycoprotein (Env) on pseudovirus (HIV-1)
[4] = biological target: HIV-1 Env of isolate MGRM-Chronic-B-008, clade B, on pseudovirus (HIV-1)
[5] = biological target: HIV-1 Env of pseudovirus MGRM-AG-012 (clade CRF_AG) (HIV-1)
[6] = biological target: HIV-1 Env of isolate MGRM-D-022 (clade D pseudovirus) (HIV-1)
[7] = biological target: HIV-1 Env of isolate 92RW021 (clade A pseudovirus) (HIV-1)
[8] = biological target: HIV-1 Env of pseudovirus MGRM-Chronic-B-023 (HIV-1)
[9] = biological target: HIV-1 Env of isolate 98IN022 (clade C) (HIV-1 isolate 98IN022)
[10] = biological target: HIV-1 Env of pseudovirus MGRM-Chronic-B-018 (HIV-1)
[11] = biological target: HIV-1 Env of pseudovirus MGRM-Chronic-B-024 (HIV-1)
[12] = biological target: HIV-1 envelope glycoprotein (Env) of isolate 93UG077, clade A (HIV-1)
[13] = biological target: HIV-1 envelope glycoprotein (Env) of isolate MGRM-A-008, clade A (HIV-1)
[14] = biological target: HIV-1 envelope glycoprotein (Env) of isolate MGRM-A-011, clade A (HIV-1)
[15] = biological target: HIV-1 Env of isolate MGRM-D-014 (clade D pseudovirus) (HIV-1)
[16] = biological target: HIV-1 JRCSF envelope glycoprotein (Env) on pseudovirus (HIV-1) (UniProt P20871)
[17] = biological target: HIV-1 Env of pseudovirus MGRM-G-014 (HIV-1, clade G isolate MGRM-G-014)
[18] = biological target: HIV-1 Env of pseudovirus MGRM-AG-011 (clade CRF_AG) (HIV-1)

1443_C16 (PG16) (TCN-116) (antibody), sequence (VH): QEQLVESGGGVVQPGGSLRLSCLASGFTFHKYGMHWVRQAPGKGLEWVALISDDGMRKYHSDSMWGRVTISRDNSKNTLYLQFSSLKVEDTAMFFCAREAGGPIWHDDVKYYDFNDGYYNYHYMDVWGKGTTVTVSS
1443_C16 (PG16) (TCN-116) (antibody), sequence (VL): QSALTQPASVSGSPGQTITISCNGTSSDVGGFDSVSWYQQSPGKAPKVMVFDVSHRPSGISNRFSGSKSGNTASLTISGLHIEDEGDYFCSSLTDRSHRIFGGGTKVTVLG

Row | Substance | IC50, pseudovirus neutralization [1] | IC50 [2] | IC50, pseudovirus neutralization [3] | IC50 (µg/ml), pseudovirus neutralization [4] | IC50 [5] | IC50 (µg/ml), pseudovirus neutralization [6] | IC50 (µg/ml), pseudovirus neutralization [7] | IC50 (µg/ml), pseudovirus neutralization [8] | IC50 (µg/ml), pseudovirus neutralization [9] | IC50 (µg/ml), pseudovirus neutralization [10] | IC50 (µg/ml), pseudovirus neutralization [11] | IC50 (µg/ml), pseudovirus neutralization [12] | IC50 (µg/ml), pseudovirus neutralization [13] | IC50 (µg/ml), pseudovirus neutralization [14] | IC50 (µg/ml), pseudovirus neutralization [15] | IC50, pseudovirus neutralization [16] | IC90 (pseudovirus neutralization) [16] | IC50 (µg/ml), pseudovirus neutralization [17] | IC50 [18]
1 | 1443_C16 (PG16) (TCN-116) (antibody) | > 50 µg/mL | 0.002 µg/mL | 0.08 µg/mL | 0.73 µg/mL | 25.1 µg/mL | > 50 µg/mL | 0.11 µg/mL | 0.13 µg/mL | 0.003 µg/mL | 0.7 µg/mL | 0.01 µg/mL | > 50 µg/mL | > 50 µg/mL | 0.24 µg/mL | 0.003 µg/mL | < 0.0025 µg/mL | 0.013 µg/mL | 6.98 µg/mL | 0.002 µg/mL
2 | 2F5 (antibody) | > 50 µg/mL | 0.98 µg/mL | 0.1 µg/mL | > 50 µg/mL | 0.33 µg/mL | 8.45 µg/mL | 4.16 µg/mL | 0.1 µg/mL | > 50 µg/mL | 10.8 µg/mL | > 50 µg/mL | 3.3 µg/mL | > 50 µg/mL | > 50 µg/mL | 2.22 µg/mL | 3.36 µg/mL | 25.3 µg/mL | 9.65 µg/mL | > 50 µg/mL
3 | 1495_C14 (PGC14) (antibody) | 0.637 µg/mL | > 50 µg/mL | 7.41 µg/mL | > 50 µg/mL | > 50 µg/mL | > 50 µg/mL | > 50 µg/mL | > 50 µg/mL | 9 µg/mL | > 50 µg/mL | > 50 µg/mL | > 50 µg/mL | > 50 µg/mL | > 50 µg/mL | 48 µg/mL | > 50 µg/mL | – | > 50 µg/mL | > 50 µg/mL
4 | 4E10 (antibody) | 41.4 µg/mL | 1.27 µg/mL | 0.4 µg/mL | 16.7 µg/mL | 0.86 µg/mL | 16.9 µg/mL | 4.87 µg/mL | 27.9 µg/mL | 0.53 µg/mL | 23.2 µg/mL | 9.19 µg/mL | 10.6 µg/mL | 7.59 µg/mL | 2.88 µg/mL | 3.24 µg/mL | 6 µg/mL | 44.1 µg/mL | 13.7 µg/mL | 1.36 µg/mL
5 | b12 (antibody) | 27.5 µg/mL | > 50 µg/mL | > 25 µg/mL | 2.82 µg/mL | 10.4 µg/mL | 17.6 µg/mL | > 50 µg/mL | > 50 µg/mL | 0.42 µg/mL | 0.66 µg/mL | > 50 µg/mL | 47 µg/mL | > 50 µg/mL | 4.01 µg/mL | > 50 µg/mL | 0.16 µg/mL | 1.17 µg/mL | > 50 µg/mL | > 50 µg/mL
